The target of experiment [1] is dog-human chimeric C-C chemokine receptor 2B (dog-human chimera (synthetic)). Briefly: cell-based or functional assay.
Experiment [2] deals with human C-C chemokine receptor 2B (human) (UniProt P41597). As to the kind of experiment: cell-based or functional assay.

Data on 3 substances can be found in patent US20080038777A1.

Chain of human C-C chemokine receptor 2B (human) (P41597 whole entry): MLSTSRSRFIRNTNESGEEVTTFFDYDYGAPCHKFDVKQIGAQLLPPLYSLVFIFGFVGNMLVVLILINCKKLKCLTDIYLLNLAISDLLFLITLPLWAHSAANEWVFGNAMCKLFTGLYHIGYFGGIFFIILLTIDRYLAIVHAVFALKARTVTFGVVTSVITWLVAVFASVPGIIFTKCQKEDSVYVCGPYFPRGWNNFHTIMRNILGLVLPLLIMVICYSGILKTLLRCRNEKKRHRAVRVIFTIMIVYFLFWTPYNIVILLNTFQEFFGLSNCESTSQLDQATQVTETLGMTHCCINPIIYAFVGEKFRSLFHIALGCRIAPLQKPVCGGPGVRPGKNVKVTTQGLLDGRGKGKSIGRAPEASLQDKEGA
Chain of dog-human chimeric C-C chemokine receptor 2B (dog-human chimera (synthetic)) (chain, as listed by the source mutant limits assumed): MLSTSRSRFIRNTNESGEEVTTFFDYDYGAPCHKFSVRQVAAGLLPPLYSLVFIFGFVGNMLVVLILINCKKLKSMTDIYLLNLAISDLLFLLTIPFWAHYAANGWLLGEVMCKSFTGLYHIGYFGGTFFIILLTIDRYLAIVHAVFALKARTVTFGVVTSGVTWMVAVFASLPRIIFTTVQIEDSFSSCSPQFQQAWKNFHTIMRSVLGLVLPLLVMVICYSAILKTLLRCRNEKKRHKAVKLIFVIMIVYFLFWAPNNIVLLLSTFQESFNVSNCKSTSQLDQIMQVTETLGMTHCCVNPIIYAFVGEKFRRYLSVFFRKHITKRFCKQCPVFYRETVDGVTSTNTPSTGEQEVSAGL

Consider “human monocyte chemoattractant protein-1 (from UniProt P13500 24-99) (ligand)”, for which the EC50 of MCP-1-dependent calcium mobilization (FLIPR), CHO-K1 cells expressing the chimeric receptor in experiment [1] came to 1.5 nM. In experiment [2], the EC50 of MCP-1 signaling (calcium mobilization, FLIPR) in THP-1 cells was determined as 3 nM and the calcium mobilization (FLIPR), THP-1 cells was 8 nM.
With “canine monocyte chemoattractant protein-1 (from UniProt P52203 24-101) (ligand)”, the EC50 of calcium mobilization (FLIPR), THP-1 cells in experiment [2] came to 53 nM.
Still for that read-out and setting: to “mouse monocyte chemoattractant protein-1 (from UniProt P10148 24-148) (ligand)” belongs 30 nM.
